Substitutions are numbered along the chain they refer to. Each block holds one binder with its values, some of them ahead of it.
How the values were obtained:
[1] = biological target: T1, human interleukin-2 (recombinant human IL-2, teceleukin) (human, UniProt P60568 21-153); assay: SPR (Table 1)
T1 construct: also called hIL-2; rhIL-2

[2] = biological target: T1, human interleukin-2 (recombinant human …); assay: SPR, mAb immobilized, IL-2 injected
Protocol: Chip surface was regenerated after every cycle using glycine buffer pH 1.5. Measurements were acquired at 20° C. and analysed on a Biacore T100 (GE Healthcare).

[3] = biological target: T1, human interleukin-2 (recombinant human …); assay: single-cycle surface plasmon resonance (SPR)
[4] = biological target: T1, human interleukin-2 (recombinant human …); assay: single-cycle SPR
mouse IL-2 = biological target: T2, mouse IL-2 (mouse, UniProt P04351 21-169); assay: SPR (Table 1)
T2 sequence (looked up): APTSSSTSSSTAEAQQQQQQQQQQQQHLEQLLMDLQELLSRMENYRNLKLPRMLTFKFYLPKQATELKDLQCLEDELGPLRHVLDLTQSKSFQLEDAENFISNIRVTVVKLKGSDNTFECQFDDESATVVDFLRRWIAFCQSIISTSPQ

T1 sequence (P60568 21-153 limits assumed): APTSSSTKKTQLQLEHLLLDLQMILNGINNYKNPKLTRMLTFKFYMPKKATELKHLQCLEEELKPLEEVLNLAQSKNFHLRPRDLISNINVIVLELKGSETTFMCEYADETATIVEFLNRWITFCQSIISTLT

B2: UFKA-20 (mouse anti-human IL-2 monoclonal antibody) (antibody, V domains shown)
VH: EVMLVESGGGLVKPGGSLKLSCAASGFSFSNYAMSWVRQTPERRLEWVALISGGGSYSYYPDSLKGRFTISRDSARNSLYLQMSSLRSEDTAMYYCARHMGYNDYLAWFAYWGQGTLVTVSS
VL: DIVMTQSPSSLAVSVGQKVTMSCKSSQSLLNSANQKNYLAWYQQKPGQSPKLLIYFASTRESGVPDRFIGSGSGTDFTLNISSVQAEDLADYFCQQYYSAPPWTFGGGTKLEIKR
notes: Full mouse heavy and light chains; also called UFKA-20-00; 1+6
- Kd [2]: 2.3 nM
- koff [2]: 0.000391 s⁻¹
- kon [2]: 257000 M⁻¹ s⁻¹
- Kd [3]: 0.788 nM

B4: UFKA-20 variant 2+9 (antibody, V domains shown)
VH: B2 VH with S56R, Y102K
VL: DIVMTQSPSSLAVSVGQKVTMSCKSSQSLLNSANQRNYLAWYQQKPGQSPKLLIYWASTRESGVPDRFIGSGSGTDFTLNISSVQAEDLADYFCQQYYSAPPWTFGGGTKLEIKR
- Kd [4]: 64 nM

B5: JES6-1 (anti-mouse IL-2 mAb) (antibody, V domains shown)
VH: EIQLQQSGPELRRPGSSVKLSCKASGYNITDYLIHWVRHRPEHGLEWIGWIDPEDGETRYAQKFQSKATLTADTSSNAAYMQLSSLTPEDTATYFCARSLDSTYIYPFAYWGQGTLVTVSS
VL: DIVMTQSPFSLAVSEGEMVTINCKSSQSLLSSGNQKNYLAWYQQKPGQSPKLLIYYASTGQSGVPDRFIGSGSGTDFTLTISDVQAEDLADYYCLQHYISPPTFGAGTKLELK
- Kd (mouse IL-2): 5.6 nM

Next, values leading:

- Kd [1]: 1.88 nM
- koff [1]: 0.00711 s⁻¹
- kon [1]: 3.78e+06 M⁻¹ s⁻¹
B1: F5111 (anti-human IL-2 mAb) (antibody, V domains shown)
VH: QLQLQESGPGLVKPSQTLSLTCTVSGGSISSGGYYWSWIRQHPGKGLEWIGYIYYSGSTYYNPSLKSRVTISVDTSKNQFSLKLSSVTAADTAVYYCARTPTVTGDWFDPWGRGTLVTVSS
VL: NFMLTQPHSVSESPGKTVTISCTRSSGSIASNYVQWYQQRPGSSPTTVIYEDNQRPSGVPDRFSGSIDSSSNSASLTISGLKTEDEADYYCQSYDSSNVVFGGGTKLTVL

- Kd [4]: 0.186 nM
B3: UFKA-20 variant 5+9 (antibody, V domains shown)
VH: B2 VH with S56R, M100L, Y102H
VL: B4 VL
